The record followed here is patent US20010046966, “Inhibition of adipogenesis” (published 2001).

Data set [1] deals with T1, GATA-3 (UniProt P23772 P23772:1-443). As to the kind of experiment: competition; 1 ug, no competition. As to conditions: tags: GST fusion. On the procedure:
(§1) FIG. 5B is a photograph of an electrophoretic gel showing the results of an mobility shift assay. Based on the result of Dnase I footprinting, two double stranded DNA fragment (nucleotide −199 to −85 and nucleotide −22 to +9, respectively) were end-labeled with 32P and electrophoretic mobility shift assays were performed with GST-GATA-2 or GST-GATA-3. For each protein-DNA reaction, specific (S) or non-specific (N) DNA competitors were also included in the experiments.
(§2) After confirming the requirement for GATA DNA-binding activity, experiments were carried out to determine whether this activity requires direct interaction with the PPAR-gamma 2 promoter. The proximal PPAR-gamma 2 promoter region was evaluated by deletion analysis. […] To determine if and at what sites GATA factors directly interact with DNA on this fragment, DNase I footprinting experiments were carried out (FIG. 5A) combined with elecrophoretic mobility shift assays (FIG. 5B) using recombinant GATA-2 and GATA-3 fusion proteins. The electrophoretic mobility shift assays were performed in 20 ul reaction volume. 2 ul GST-GATA fusion protein was incubated with 0.5 ug poly[d(I-C)] and ³²p labeled DNA probe (4×10⁴ cpm) in the presence or absence of 1 ug of specific or non-specific competitors, at room temperature for 20 min. […]

The target of data set [2] is T2, GATA-2 (UniProt O09100 O09100:1-480). As to the kind of experiment: competition; 1 ug, no competition. Particulars: tags: GST fusion (pGEX-2T). On the procedure: as §1, §2
T2 sequence (O09100 whole entry, the tested form may be a part, one chain of several): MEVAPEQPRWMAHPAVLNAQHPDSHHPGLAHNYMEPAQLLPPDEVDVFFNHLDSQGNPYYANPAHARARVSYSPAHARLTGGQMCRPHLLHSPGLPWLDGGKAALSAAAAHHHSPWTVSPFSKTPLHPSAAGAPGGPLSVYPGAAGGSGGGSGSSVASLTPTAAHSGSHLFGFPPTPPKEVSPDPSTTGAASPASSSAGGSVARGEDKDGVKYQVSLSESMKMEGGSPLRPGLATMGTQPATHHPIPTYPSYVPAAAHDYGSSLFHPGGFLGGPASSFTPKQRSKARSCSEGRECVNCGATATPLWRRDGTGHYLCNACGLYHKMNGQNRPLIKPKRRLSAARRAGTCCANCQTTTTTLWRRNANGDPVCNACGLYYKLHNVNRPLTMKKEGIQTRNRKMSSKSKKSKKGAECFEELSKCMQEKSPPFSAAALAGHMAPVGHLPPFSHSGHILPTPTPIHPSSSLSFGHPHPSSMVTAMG
Data set [3] concerns the target T1, GATA-3. As to the kind of experiment: competition; 1 ug competitor competed complex. As to conditions: tags: GST fusion. Here is the method: as §1, §2
Data set [4] addresses T2, GATA-2. As to the kind of experiment: competition; 1 ug competitor competed complex. Particulars: tags: GST fusion (pGEX-2T). On the procedure: as §1, §2

T1 sequence (P23772 whole entry, the tested form may be a part, one chain of several): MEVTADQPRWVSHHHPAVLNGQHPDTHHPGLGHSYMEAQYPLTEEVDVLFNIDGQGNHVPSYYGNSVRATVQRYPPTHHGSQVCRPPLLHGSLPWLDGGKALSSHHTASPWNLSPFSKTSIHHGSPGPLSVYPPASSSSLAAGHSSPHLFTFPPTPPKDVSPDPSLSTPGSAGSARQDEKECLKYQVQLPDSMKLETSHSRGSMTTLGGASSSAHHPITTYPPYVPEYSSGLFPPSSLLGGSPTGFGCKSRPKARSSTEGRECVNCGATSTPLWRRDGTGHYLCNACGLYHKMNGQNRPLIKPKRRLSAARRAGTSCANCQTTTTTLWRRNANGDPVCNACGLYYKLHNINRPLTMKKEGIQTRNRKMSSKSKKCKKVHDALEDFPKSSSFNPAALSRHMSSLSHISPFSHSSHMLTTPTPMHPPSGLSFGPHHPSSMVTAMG

B1: non-specific competitor (dsDNA)
DNA 1: GATCGAACTGACCGCCCGCGGCCCGT
DNA 2: ACGGGCCGCGGGCGGTCAGTTCGATC
On to B1, for which the binding result in data set [1] and in data set [2] was “no binding” in each case.

B2: specific GATA competitor (dsDNA)
DNA 1: GATCTCCGGCAACTGATAAGGATTCCCTG
DNA 2: CAGGGAATCCTTATCAGTTGCCGGAGATC
As for B2, the binding result in data set [3] and in data set [4] was “binds” in each case.
